The supplement of paper PMC9170038

System: MS2 coat protein
Assay: apparent KD of MS2 coat protein; designed switch direction (-1 OFF switch, 1 ON switch): 1; higher = weaker reporter binding
Outline: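 Apparent KD, taken as the median over clusters for each design, was obtained by curve-fitting normalised cluster fluorescence. Designed RNA switches had been transcribed on Illumina chips by stalled E. coli RNA polymerase and titrated with SNAP-549-labelled MS2 coat protein, doubling from 0.7 or 1.5 nM to 3 µM.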

[1] = input ligand: microRNA oligo, concentration not stated
[2] = Eterna round: R95, input ligand: microRNA oligo, concentration not stated
[3] = Eterna round: R95, input ligand: FMN 200 uM
[4] = Eterna round: R95, input ligand: none

Sequence | apparent KD of MS2 coat protein (input ligand: FMN 200 uM) | apparent KD of MS2 coat protein [1] | apparent KD of MS2 coat protein (input ligand: none) | apparent KD of MS2 coat protein [2] | apparent KD of MS2 coat protein [3] | apparent KD of MS2 coat protein [4]
GGAAUAUGAUGUUACAUGAGGAUCACCCAUGUAGUAAUAACUAAGGAUAUCUGAAAGGGAGGAGAAGAGAAGGUAGGAUCAUAA [AK SSNG3-V2-10.2] (Eterna round: R96, puzzle: Same State NG 3) | 60 nM | 35.4 nM | 56.4 nM |  |  | 
GGAAUAUGAUGUUACAUGAGGAUCACCCAUGUAGUGAUAACUAAGGAUAUCUGUUAAGAUAACUAAGAGAAGGUAGGAUCAUAA [AK SSNG3-V2-8.3] (Eterna round: R96, puzzle: Same State NG 3) | 49.7 nM | 44.9 nM | 55.9 nM |  |  | 
GGAAUAUUUACAGGAUAUGAUUUGUAAAGUCGAUCAGAAGGGUGGAUGUCUUACACGGUUUGUUACAUGAGGAUCACCCAUGUC [SameState NG1 #13] (Eterna round: R96, puzzle: Same State NG 1) | 232 nM | 233 nM | 378 nM |  |  | 
GGAAUAUUUACAGGAUAUGUUUUGUUAAGUCGAGCAGAAGGGUAGAUGUCUUACACGGUUUGUUACAUGAGGAUCACCCAUGUC [SameState NG1 #16] (Eterna round: R96, puzzle: Same State NG 1) | 26.4 nM | 80.3 nM | 126 nM |  |  | 
GGAAUAUUUACAGGAUAUGUUUUGUUAAGUCGAGCAGAAGGGUGGAUGUCUUACACGGUUUGUUACAUGAGGAUCACCCAUGUC [SameState NG1 #15] (Eterna round: R96, puzzle: Same State NG 1) |  | 188 nM |  |  |  | 
GGAAUGUGAUGUUACAUGAGGAUCACCCAUGUAGUGACAACUAAGGAUAUCUGAAAAGAAGGAGAGGAGAAGGUAGGAUCACAA [AK SSNG3-V2-15] (Eterna round: R96, puzzle: Same State NG 3) | 30.8 nM | 39.2 nM | 58.9 nM |  |  | 
GGACGUCAAUCUCCUAAUUAAACAUGAGGAUCACCCAUGUCACAGGAUAUGAGUCCGAUUAGGACUCAGAAGGGUGAGACGUCC [Fiskers NG3ss - 49] (Eterna round: R96, puzzle: Same State NG 3) | 22.1 nM | 17.2 nM | 25.8 nM |  |  | 
GGAGAACAUGAGGAUCACCCAUGUGGAUGGGCGCUAGGAUAUGCGAGAGGGUGGAGAGAAGCAGAAGGAGUGGAUA [JR_SS1_Sub037] (puzzle: Same State 1) |  |  |  | 50.2 nM |  | 
GGAGAGAGAGCGCAGGAUAUUCGAGGAGAAACAUGAGGAUCACCCAUGUGAGAGAGAGAGGAGAAGGAGAAGGGUGAGAGAGAGG [Altered State 2-14 - Jieux - Same State 2] (puzzle: Same State 2) |  |  |  | 34.9 nM | 147 nM | 32.6 nM
GGAGCCAAGGCAGGAUAUUCAUAUUAACAACAUGAGGAUCACCCAUGUAAGGCCAGAAGGCCUUGGGAGAAGGGCCAUGGCUCG [Xeonanis - 13 mod4] (Eterna round: R96, puzzle: Same State NG 2) | 26.2 nM | 110 nM | 187 nM |  |  | 
GGAGCCAAGGCAGGAUAUUCAUAUUAAUAACACAUGAGGAUCACCCAUGUGGCCAGAAGGCCUUGGGAGAAGGGCCAUGGCUCG [Xeonanis - 13 mod9] (Eterna round: R96, puzzle: Same State NG 2) | 28 nM | 57.7 nM | 95.3 nM |  |  | 
GGAGCCGGCACCGAGGAUAUUCAUAUUAAAACAUGAGGAUCACCCAUGUAGAGCGAAAGCUCUUGGGAGAAGGCGGAUCGGCUCG [Xeonanis - 28] (Eterna round: R96, puzzle: Same State 2) | 34.6 nM | 488 nM | 665 nM |  |  | 
GGAGCCGGCACCGAGGAUAUUCAUAUUAAAACAUGAGGAUCACCCAUGUAGAGCGAAAGCUCUUGGGAGAAGGCGGAUCGGCUCG [Xeonanis - 28] (puzzle: Same State 2) |  |  |  | 672 nM | 34.1 nM | 1060 nM
GGAGCCGGCACCGAGGAUAUUCAUAUUAAAACAUGAGGAUCACCCAUGUAGGUCGAAAGACCUUGGGAGAAGGCGGAUCGGCUCG [Xeonanis - 30] (puzzle: Same State 2) |  |  |  | 518 nM | 38.3 nM | 803 nM
GGAGCCGGCACUGAGGAUAUUCAUAUUAAAACAUGAGGAUCACCCAUGUAGGCCAGAAGGCCAUGGGAGAAGGCAGGUCGGCCCG [Bibimoar - 7] (puzzle: Same State 2) |  |  |  | 211 nM | 46.7 nM | 416 nM
GGAGCCGGCACUGAGGAUAUUCAUAUUAAAACAUGAGGAUCACCCAUGUAGGCCAGAAGGCCUUGGGAGAAGGCAGGUCGGCUCA [Mat - Same State 2 - Mod of UCT - D59] (puzzle: Same State 2) |  |  |  | 235 nM | 20.5 nM | 338 nM

Sequence | apparent KD of MS2 coat protein (input ligand: FMN 200 uM) | apparent KD of MS2 coat protein [1] | apparent KD of MS2 coat protein (input ligand: none) | apparent KD of MS2 coat protein [2] | apparent KD of MS2 coat protein [3] | apparent KD of MS2 coat protein [4]
GGAGCCGGCACUGAGGAUAUUCAUAUUAAAACAUGAGGAUCACCCAUGUGGGCCAGAAGGCCUUGGGAGAAGGCAGGUCGGCCCG [Bibimoar - 4] (puzzle: Same State 2) |  |  |  | 140 nM | 20.2 nM | 183 nM
GGAGCCGGCCUAGGAUAUUUCAUUAAAAUACAUGAGGAUCACCCAUGUAGGCCAGAAGGCCUUGGGAAGAAGGAGGUCGGCUCC [Loop Effect - U24,U29] (Eterna round: R96, puzzle: Same State NG 2) | 9.56 nM | 17.6 nM | 23.1 nM |  |  | 
GGAGCCGGCCUAGGAUAUUUCAUUUUAAAACAUGAGGAUCACCCAUGUAGGCCAGAAGGCCUUGGGAAGAAGGAGGUCGGCUCC [Loop Effect - U24,U25,U26] (Eterna round: R96, puzzle: Same State NG 2) | 17.4 nM | 33.2 nM | 69.3 nM |  |  | 
GGAGGACAUGAGGAUCACCCAUGUGGAUGAACGCUAGGAUAUGCGUGCAGGAAGAGUGGAGCAGAAGGAGUGGGAU [JR_SS1_Sub047] (puzzle: Same State 1) |  |  |  | 19.1 nM |  | 
GGCCUCUGUCAAGGAUAUGCUACCGUUUCGGUAGCAGAAGGUGAUCACAUGCGGUUCGCCCAUGUUUAGGCCAACAGGCCCGCC (Eterna round: R96, puzzle: Same State NG 1) | 25.1 nM | 5.14 nM | 6.87 nM |  |  | 
GGCCUGAGUGAAGGAUAUGCUACCGUUUCGGUAGCAGAAGGUCAUCACAUGAGGAUGACCCAUGUUUACGCGAACACGCGCGCC (Eterna round: R96, puzzle: Same State NG 1) | 45.9 nM | 27.2 nM | 28.2 nM |  |  | 
GGCCUGCCGCAAGGAUAUGAAGCUUUCGCUCCGUCAGAAGGUGCACAUGAGGAUCACCCAUGUAUGCAGGCCAAGAAAUAAACC [Tisoenat] (Eterna round: R96, puzzle: Same State NG 1) | 13.2 nM | 25.9 nM | 37.1 nM |  |  | 
GGCUAUCGCAUUCGAUAGCUUAAGCAUGUACAUGAGGAUCACCCAUGUCAUGUACAGGCUUUUUGCUCGUACUUAUA (puzzle: Sensor for hsa-mir-208a) |  |  |  | 14.9 nM | 286 nM | 366 nM
GGCUAUCGCGUACGAUAGCUUAAGCAUGUACAUGAGGAUCACCCAUGUCAUGUACAAGCUUUUUGCUCGGCUUAUUG (puzzle: Sensor for hsa-mir-208a) |  |  |  | 14.3 nM | 119 nM | 132 nM
GGCUAUCGCGUACGAUAGCUUAGGCAUGUACAUGAGGAUCACCCAUGUCAUGUACAGGCUUUUUGCUCGUCUUAUUG [JL-shm-2.36 JL mod] (puzzle: Sensor for hsa-mir-208a) |  |  |  | 16.7 nM | 179 nM | 210 nM
GGGAAGAGGGACAAGGAUAUGUCAGGAGAGACAUGAGGAUCACCCAUGUGGAGGUUGGAGCAGAGACAGAAGGUGUACGGAGAGA [JR_SS2_Sub010] (puzzle: Same State 2) |  |  |  | 118 nM | 108 nM | 145 nM
GGGCCAGCUUUUGCUGGGCCUUCGCUUGCACAUGAGGAUCACCCAUGUCGUGUACACGCUUCCUGCCCGUCUUGUUU [Photon Torp-19] (puzzle: Sensor for hsa-mir-208a) |  |  |  | 15.3 nM | 24 nM | 24.6 nM
GGUAAGAAUUAAGGAUAUUGAAUACAUAUGUUUAACAUGAGGAUCACCCAUGUGGGUUGCGGUGUCGAGAAGGUAAAAUAAUAG [Mat - same State NG 2 - JL mod - D101] (Eterna round: R96, puzzle: Same State NG 2) | 269 nM | 166 nM | 311 nM |  |  | 
GGUACCAUCACAGGAUAUGCUAUCCUUUGGGUAGCAGAAGGGUGAAACAUGAGGAUCACCCAUGUGGUGCCAGGGCGUGAGCCC [JL SSNG1 1.92] (Eterna round: R96, puzzle: Same State NG 1) | 31.2 nM | 398 nM | 689 nM |  |  | 
GGUAUCGACGCAGGAUAUGCUAUCCUUUGGGUAGCAGAAGGGUGAACAUGAGGAUCACCCAUGUGGGUGCCAGGGCGUGAGCCC [JL SSNG1 1.82] (Eterna round: R96, puzzle: Same State NG 1) | 694 nM | 18.2 nM | 86.8 nM |  |  | 
